The values that follow come from patent US8304236B2, “Modified biotin-binding protein” (Japan Tobacco Inc., priority 2008, dated 2012).

Several values for one entry are separate records, joined by “and”; a condition that tells them apart may be missing. Equal entries are not always repeated.

The subject of one series is human serum protein. Put plainly: Non-specific adsorption of serum protein to HALU TM2-immobilized magnetic beads. The note with it: human serum diluted 800 times, anti-human IgG detection. It counts as binding. As to the method:
In this Example, non-specific adsorption of serum protein to HALU TM2-immobilized magnetic beads was investigated.
TM2 D40NR104E and TM2 D40NR104EK141E were bonded covalently to magnetic beads (Dynabeads M-270 Carboxylic Acid, Dynal) by the process described in paragraph 1-9) of Example 1, and the amount of human serum protein adsorbed to the beads was measured. The amount of each HALU TM2 immobilized to the magnetic beads was adjusted to 10 μg/100 μL beads. Human serum (CHEMICON) was diluted 800 times with a PBS buffer, and the HALU TM2-immobilized magnetic beads (50 μL) to which a certain amount of protein was immobilized were added to the diluted human serum, followed by mixing by turning the tube containing the beads upside down at room temperature for 15 minutes. The magnetic beads were washed with a PBS buffer containing 0.1% Tween 20 (PBST, 500 μL) four times and were then subjected to antigen-antibody reaction at room temperature for 15 minutes with HRP-labeled anti-human IgG mouse antibody (100 μL) diluted 5000 times with PBST containing 0.5% BSA. Subsequently, the beads were washed with PBST (500 μL) five times, followed by color development with 1-Step Ultra TMB-ELISA (100 μL). After termination of the color development with 2M sulfuric acid (100 μL), the magnetic beads were collected with a magnet. The absorbance at 450 nm of the supernatant was measured with an Infinite 200 microplate reader.

The test system of the next series is Salmon sperm DNA. As to the kind of experiment: Non-specific binding to DNA (membrane-adsorbed DNA, biotinylated HRP, ECL). The note with it: salmon sperm DNA 10 μg to 1 μg on membrane, 25 μg/mL protein. As for the experimental part: Salmon sperm DNA diluted stepwise from 10 μg to 1 μg with 2×SSC buffer was denatured with an alkali and was adsorbed to Hybond N+membrane (Amersham Biosciences) using Bio-Dot SF (BIO-RAD). After blocking the membrane with 5×Denhardt's solution (0.1% BSA, 0.1% ficoll, 0.1% polyvinylpyrrolidone), the membrane was immersed in 25 μg/mL of low-pI TM2 or the wild-type TM2 at room temperature for 90 minutes. Then, the membrane was washed with a TUBS buffer (TBS buffer containing 0.05% Tween 20) at room temperature for 5 minutes three times. The membrane was blocked with a TBS buffer containing 3% skimmed milk and 0.1% Tween 20 for 1 hour. The membrane was subjected to a reaction with biotinylated horseradise peroxidase (Vector) diluted 5000 times with a TBS buffer containing 3% skimmed milk and 0.1% Tween 20 at room temperature for 1 hour. The membrane was washed with a TBS buffer containing 0.1% Tween 20 again and was then shaken in a solution that is a mixture of reagent 1 and reagent 2 of ECL (Amasham) in the same volumes, followed by detection of the luminol reaction with Las-3000 (FUJIFILM).
The non-specific binding of HALU TM2 to DNA was analyzed by the process in paragraph 1-11) of Example 1.

The nature of series [1]: Isoelectric focusing electrophoresis (pI observed). In kind it is physicochemical. To be noted: pH 3 to 10 gel. As to the method:
The isoelectric point of each low-pI TM2 was measured by isoelectric focusing electrophoresis using an XCell SureLock Mini-Cell (Invitrogen). In accordance with the instruction, each low-pI TM2 (500 ng) and an IEF sample buffer (pH 3 to 10 (2×), Invitrogen) were mixed and were added to a polyacrylamide gel (pH 3 to 10, IEF Gel, Invitrogen) at a pH ranging from 3 to 10, followed by electrophoresis at a variable voltage of 100 V for 1 hour, 200 V for 1 hour, and 500 V for 45 minutes in this order.
After the electrophoresis, the gel was shaken in a blotting buffer (0.7% acetic acid) for 10 minutes and then was transferred onto a PVDF membrane at 10 V for 1 hour using an XCell ll Blot Module (Invitrogen). The PVDF membrane was subjected to reaction with anti-TM2 rabbit antibody (PCT/W2006/326260) serving as a primary antibody and with alkaline phosphate-labeled anti-rabbit IgG antibody (BIO-RAD) serving as a secondary antibody, followed by detection of bands with Alkaline Phosphatase Substrate Kit II
The isoelectric point of the high-affinity TM2 was measured by isoelectric focusing electrophoresis using an XCell SureLock Mini-Cell (Invitrogen). […] The electric point of TM2 D40N having replacement of the […] amino acid was higher than that of the wild type TM2 also in the isoelectric focusing electrophoresis.
The isoelectric point of HALU TM2 was measured by isoelectric focusing electrophoresis using an XCell SureLock Mini-Cell (Invitrogen). In accordance with the instruction, bands of each HALU TM2 (4 μg) were detected by CBB staining. […] The observed isoelectric point of TM2 D40N was 9.7, and was reduced to 8.9 after introduction of mutation of R104E and was reduced to 7.3 to 7.5 after further introduction of mutation of K141E.

In the next series the target is fibronectin (Homo sapiens, UniProt P02751). As to the kind of experiment: Non-specific binding to fibronectin (fibronectin-immobilized microplate, biotinylated HRP, A450). To be noted: absorbance at 450 nm. As to the method:
The fibronectin-binding of each low-pI TM2 was compared using a microplate to which fibronectin was immobilized. The concentration of fibronectin was adjusted to 50 μg/mL with a fixation solution exclusive for a New ELISA plate, and the fibronectin solution (50 μL) was added to each New ELISA plate (Sumitomo Bakelite), followed by shaking at 37° C. for 4 hours for immobilization. Then, the plate was washed with 0.1% Triton X-100-containing PBS (300 μL) three times and was then dried naturally.
TM2, K26A, K73Q, R104E, K141E, and R104EK141E mutants (50 μL each) were each added to the corresponding well of the plate and left at room temperature for 1 hour. The plate was washed with 300 μL/well of PBST (PBS buffer containing 0.1% Tween 20) three times. Then, biotinylated HRP diluted 5000 times with PBST containing 0.5% BSA was added at 50 μL/well and allowed to react with the mutant at room temperature for 1 hour. After washing with 300 μL/well of PBST three times, 50 μL/well of 1-Step Ultra TMB-ELISA solution was added to each well for color development. After termination of the color development with 50 μL/well of 2M sulfuric acid, absorbance at 450 nm was measured with an Infinite 200 microplate reader.
Non-specific binding of HALU TM2 to fibronectin was also investigated as in paragraph 1-10) of Example 1.

Sequence of fibronectin (P02751 32-2477, species assumed): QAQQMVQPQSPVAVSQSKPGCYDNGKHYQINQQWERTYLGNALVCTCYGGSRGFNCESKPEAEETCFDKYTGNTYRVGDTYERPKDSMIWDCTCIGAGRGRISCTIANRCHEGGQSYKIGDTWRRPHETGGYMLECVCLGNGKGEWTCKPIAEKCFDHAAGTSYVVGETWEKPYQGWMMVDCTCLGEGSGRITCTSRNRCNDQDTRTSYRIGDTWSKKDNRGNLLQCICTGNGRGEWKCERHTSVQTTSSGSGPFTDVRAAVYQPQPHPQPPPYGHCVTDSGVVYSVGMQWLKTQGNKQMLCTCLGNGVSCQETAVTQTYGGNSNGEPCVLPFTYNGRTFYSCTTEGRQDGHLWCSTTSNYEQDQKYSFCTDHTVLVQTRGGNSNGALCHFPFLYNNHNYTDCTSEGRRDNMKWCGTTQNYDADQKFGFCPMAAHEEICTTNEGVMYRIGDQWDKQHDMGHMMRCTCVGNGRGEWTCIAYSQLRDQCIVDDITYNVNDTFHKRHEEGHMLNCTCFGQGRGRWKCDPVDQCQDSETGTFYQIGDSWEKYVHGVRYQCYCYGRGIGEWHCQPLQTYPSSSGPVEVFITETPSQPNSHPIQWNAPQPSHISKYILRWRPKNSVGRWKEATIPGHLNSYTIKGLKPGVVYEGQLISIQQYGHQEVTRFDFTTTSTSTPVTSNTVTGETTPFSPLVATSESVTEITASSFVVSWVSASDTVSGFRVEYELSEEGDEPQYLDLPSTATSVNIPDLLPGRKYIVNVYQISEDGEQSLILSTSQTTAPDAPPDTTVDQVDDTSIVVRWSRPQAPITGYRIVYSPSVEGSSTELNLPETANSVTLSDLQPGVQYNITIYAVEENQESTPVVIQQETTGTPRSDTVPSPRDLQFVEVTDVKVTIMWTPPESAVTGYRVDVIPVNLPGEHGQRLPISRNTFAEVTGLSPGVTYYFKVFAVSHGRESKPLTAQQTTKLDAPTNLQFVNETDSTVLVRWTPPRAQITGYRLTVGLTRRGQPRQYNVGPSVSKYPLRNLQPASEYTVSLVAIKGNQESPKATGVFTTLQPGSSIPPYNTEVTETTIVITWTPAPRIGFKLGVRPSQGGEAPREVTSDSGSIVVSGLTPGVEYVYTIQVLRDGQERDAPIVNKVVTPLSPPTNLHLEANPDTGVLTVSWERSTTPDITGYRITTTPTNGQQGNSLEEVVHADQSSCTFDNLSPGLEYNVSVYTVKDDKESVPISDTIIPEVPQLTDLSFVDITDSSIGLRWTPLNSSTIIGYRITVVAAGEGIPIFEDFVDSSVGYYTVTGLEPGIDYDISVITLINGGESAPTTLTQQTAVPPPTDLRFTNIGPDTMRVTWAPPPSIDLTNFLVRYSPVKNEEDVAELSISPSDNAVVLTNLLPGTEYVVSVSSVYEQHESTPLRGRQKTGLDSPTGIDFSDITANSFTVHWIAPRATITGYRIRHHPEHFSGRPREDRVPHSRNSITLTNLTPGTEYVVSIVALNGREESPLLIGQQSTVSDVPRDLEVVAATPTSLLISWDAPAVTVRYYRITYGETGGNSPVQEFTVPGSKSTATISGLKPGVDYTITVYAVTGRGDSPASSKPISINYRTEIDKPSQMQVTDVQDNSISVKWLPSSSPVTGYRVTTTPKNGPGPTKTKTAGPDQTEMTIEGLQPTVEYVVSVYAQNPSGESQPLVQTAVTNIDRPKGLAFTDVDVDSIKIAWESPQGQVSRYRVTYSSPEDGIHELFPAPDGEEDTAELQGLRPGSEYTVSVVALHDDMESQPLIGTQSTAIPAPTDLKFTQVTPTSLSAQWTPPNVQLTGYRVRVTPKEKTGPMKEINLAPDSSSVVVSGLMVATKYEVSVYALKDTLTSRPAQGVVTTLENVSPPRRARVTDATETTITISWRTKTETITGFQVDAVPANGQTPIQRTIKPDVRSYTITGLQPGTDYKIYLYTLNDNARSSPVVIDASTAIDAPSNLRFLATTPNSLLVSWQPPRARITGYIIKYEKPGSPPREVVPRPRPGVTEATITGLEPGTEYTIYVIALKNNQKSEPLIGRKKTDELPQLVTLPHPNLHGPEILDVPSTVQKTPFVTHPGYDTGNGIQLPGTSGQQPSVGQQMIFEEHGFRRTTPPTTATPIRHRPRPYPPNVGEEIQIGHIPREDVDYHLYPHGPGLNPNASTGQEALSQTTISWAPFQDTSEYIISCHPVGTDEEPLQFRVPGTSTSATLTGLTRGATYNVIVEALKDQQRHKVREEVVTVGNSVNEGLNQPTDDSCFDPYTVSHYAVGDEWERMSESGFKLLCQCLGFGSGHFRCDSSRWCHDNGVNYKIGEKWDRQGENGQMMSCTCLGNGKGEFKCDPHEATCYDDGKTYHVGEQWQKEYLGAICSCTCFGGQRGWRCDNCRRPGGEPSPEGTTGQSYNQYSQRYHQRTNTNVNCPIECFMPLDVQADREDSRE

B1: TM2: wild type tamavidin 2, biotin-binding protein from Pleurotus cornucopiae, amino acid sequence SEQ ID NO: 2 (protein, listed as Pleurotus cornucopiae)
chain: MSDVQSSLTGTWYNELNSKMELTANKDGTLTGKYLSKVGDVYVPYPLSGRYNLQPPAGQGVALGWAVSWENSKIHSATTWSGQFFSESSPVILTQWLLSSSTARGDVWESTLVGNDSFTKTAPTEQQIAHAQLHCRAPRLK
For B1, the “Non-specific binding to serum protein (A450)” value with human serum protein is on record as 0.67. Also, the “Non-specific binding of DNA” value with Salmon sperm DNA and in the series on Salmon sperm DNA (listed as wild type TM2) was “weakly bound” throughout. Besides, the pI observed is 8.5 to 8.8 in series [1]; 8.5 to 8.8 in series [1] (listed as TM2WT); 8.2 to 8.6 and 8.5 to 8.8 in series [1] (listed as wild type TM2). Moreover, in the series with fibronectin (listed as wild type TM2), the “Binding of fibronectin (A450)” value fell in the range of 1.3 to 1.4.

B2: TM2 D40NR104EK141E: TM2 mutant having mutation of D40N and R104EK141E; SEQ ID NO: 24 (protein)
chain: MSDVQSSLTGTWYNELNSKMELTANKDGTLTGKYLSKVGNVYVPYPLSGRYNLQPPAGQGVALGWAVSWENSKIHSATTWSGQFFSESSPVILTQWLLSSSTAEGDVWESTLVGNDSFTKTAPTEQQIAHAQLHCRAPRLE
modifications: Synthetic TM2 D40NR104EK141E
Take B2: the “Non-specific binding to serum protein (A450)” value is “low” in the series with human serum protein and 0.45 with human serum protein (listed as D40NR104EK141E). In addition, the “Non-specific binding of DNA” value with Salmon sperm DNA is recorded as “lower than the detection limit”. For the same molecule, the pI observed in series [1] was 7.3 to 7.5. Moreover, the “Binding of fibronectin (A450)” value is reported as “extremely low” with fibronectin and 0.12 with fibronectin (listed as D40NR104EK141E).
